PMC5286394, “Architecture of the yeast Elongator complex” (EMBO Reports, 2016)
One block for each binder: values may come before it.

Columns and labels:
[1] = molecular target: T1, untagged full-length Elp1 (S. cerevisiae, UniProt Q06706 1-1349); experiment: pull-down; GST pull-down: 20 μg GST-tagged protein and increasing amounts of untagged partner with glutathione Sepharose, 2 h at 4°C, 20 mM Tris pH 7.5, 150 mM NaCl, 5 mM DTT, 0.1% Tween-20; five washes; SDS–PAGE, Coomassie; details: both partners purified
T1 construct: Elp1, Elongator subunit 1, S. cerevisiae; source: E. coli BL21 pSarRare, purified (NiNTA, TEV cleavage, second NiNTA, gel filtration); not shown: His6, N-terminal, cleaved; GST, N-terminal, cleaved
T1 sequence (looked up): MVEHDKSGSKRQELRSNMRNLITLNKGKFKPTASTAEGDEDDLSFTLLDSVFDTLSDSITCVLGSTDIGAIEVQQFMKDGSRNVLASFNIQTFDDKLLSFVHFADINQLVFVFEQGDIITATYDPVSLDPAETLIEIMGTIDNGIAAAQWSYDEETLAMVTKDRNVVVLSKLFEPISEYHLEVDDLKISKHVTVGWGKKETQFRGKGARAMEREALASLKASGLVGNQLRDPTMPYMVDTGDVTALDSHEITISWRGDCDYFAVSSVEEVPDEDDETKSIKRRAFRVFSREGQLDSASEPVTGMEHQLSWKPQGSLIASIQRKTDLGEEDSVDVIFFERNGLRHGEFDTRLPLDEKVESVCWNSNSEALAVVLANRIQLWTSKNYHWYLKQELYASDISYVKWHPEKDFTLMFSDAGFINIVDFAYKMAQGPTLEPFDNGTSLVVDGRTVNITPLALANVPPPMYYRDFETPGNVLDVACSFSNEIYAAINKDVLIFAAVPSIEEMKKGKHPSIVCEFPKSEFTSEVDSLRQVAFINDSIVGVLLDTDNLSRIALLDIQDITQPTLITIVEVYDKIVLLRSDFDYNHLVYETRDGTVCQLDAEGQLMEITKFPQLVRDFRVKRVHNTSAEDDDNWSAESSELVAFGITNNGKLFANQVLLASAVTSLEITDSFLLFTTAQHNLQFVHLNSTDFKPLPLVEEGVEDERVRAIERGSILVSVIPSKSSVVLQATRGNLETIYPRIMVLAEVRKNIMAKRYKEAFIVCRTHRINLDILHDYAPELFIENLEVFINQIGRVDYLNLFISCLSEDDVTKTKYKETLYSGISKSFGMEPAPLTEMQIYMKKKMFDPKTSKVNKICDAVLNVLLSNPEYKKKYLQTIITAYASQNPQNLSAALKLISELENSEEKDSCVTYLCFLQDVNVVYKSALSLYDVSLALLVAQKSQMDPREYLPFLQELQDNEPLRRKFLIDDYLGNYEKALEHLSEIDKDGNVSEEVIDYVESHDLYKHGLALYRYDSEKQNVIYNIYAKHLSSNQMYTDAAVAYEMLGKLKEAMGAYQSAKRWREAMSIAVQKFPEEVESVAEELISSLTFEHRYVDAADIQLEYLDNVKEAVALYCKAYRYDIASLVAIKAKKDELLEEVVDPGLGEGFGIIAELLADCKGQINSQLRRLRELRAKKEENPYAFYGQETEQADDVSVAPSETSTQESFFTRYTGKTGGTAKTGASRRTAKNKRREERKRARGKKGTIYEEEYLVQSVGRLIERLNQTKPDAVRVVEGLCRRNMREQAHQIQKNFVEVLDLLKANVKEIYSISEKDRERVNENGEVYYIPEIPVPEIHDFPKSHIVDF

[2] = molecular target: T2, Elp123 sub-complex within the endogenous holoElongator (Elp6-TAP purification) (S. cerevisiae (endogenous in strain …, UniProt Q06706 1-1349; P42935 1-788; Q02908 1-557); experiment: negative-stain EM reconstruction with integrative modelling (EM map and cross-links); holoElongator from Elp6-TAP purification, 0.01% glutaraldehyde, gel filtration; 1% uranyl acetate; 31 Å; details: both partners purified
T2 construct: Elp1, S. cerevisiae, endogenous protein; Elp2, S. cerevisiae, endogenous protein; Elp3, S. cerevisiae, endogenous protein; copies: 2 + 2 + 2
T2 sequence (P42935 whole entry, one chain of several): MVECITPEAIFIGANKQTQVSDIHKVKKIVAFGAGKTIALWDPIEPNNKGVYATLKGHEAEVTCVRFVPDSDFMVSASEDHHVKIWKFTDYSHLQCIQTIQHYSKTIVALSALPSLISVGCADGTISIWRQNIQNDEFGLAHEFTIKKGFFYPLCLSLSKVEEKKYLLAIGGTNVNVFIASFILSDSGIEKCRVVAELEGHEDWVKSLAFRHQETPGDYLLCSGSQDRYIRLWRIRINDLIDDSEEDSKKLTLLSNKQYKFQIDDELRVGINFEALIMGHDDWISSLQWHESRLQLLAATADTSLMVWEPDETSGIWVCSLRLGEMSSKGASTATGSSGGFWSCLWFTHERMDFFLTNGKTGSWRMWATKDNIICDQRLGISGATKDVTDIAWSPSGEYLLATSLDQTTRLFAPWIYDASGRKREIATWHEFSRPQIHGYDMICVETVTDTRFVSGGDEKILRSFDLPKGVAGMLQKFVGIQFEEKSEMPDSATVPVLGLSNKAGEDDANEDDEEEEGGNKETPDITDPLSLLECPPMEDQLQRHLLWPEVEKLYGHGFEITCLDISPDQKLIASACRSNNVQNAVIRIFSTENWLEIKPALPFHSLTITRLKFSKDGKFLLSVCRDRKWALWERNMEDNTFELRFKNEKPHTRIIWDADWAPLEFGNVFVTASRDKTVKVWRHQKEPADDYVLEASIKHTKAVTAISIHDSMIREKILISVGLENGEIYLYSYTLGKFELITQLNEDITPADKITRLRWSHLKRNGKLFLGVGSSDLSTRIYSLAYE

binding result [1]: binds
B1: GST-tagged Elp3 KAT domain (aa348–557) (domain or fragment, S. cerevisiae, UniProt Q02908 348-557, looked up)
chain: SYSANALVDLVARILALVPPWTRIYRVQRDIPMPLVTSGVDNGNLRELALARMKDLGTTCRDVRTREVGIQEVHHKVQPDQVELIRRDYYANGGWETFLSYEDPKKDILIGLLRLRKASKKYTYRKEFTSQRTSIVRELHVYGSVVPLHSRDPRKFQHQGFGTLLMEEAERIAKEEHGSEKISVISGVGVRNYYGKLGYELDGPYMSKRI
notes: Elp3, S. cerevisiae, lysine acetyl transferase (KAT) domain, residues 348–557; also called KAT domain of Elp3; source: E. coli BL21 pSarRare, purified (NiNTA, gel filtration); not shown: His6, N-terminal, kept; GST, N-terminal, kept

stoichiometry N [2]: 1
B2: hetero-hexameric Elp456 ring within the endogenous holoElongator (Elp6-TAP purification) (complex)
chain 1: MSFRKRGEILNDRGSGLRGPLLRGPPRTSSTPLRTGNRRAPGNVPLSDTTARLKKLNIADESKTKMGLDSSHVGVRPSPATSQPTTSTGSADLDSILGHMGLPLGNSVLVEEQSTTEFHSILGKLFAAQGIVHNRISDSSADKTRNGDTHVIVLSLNQMFAKELPGIYKGSRKQMKKNLISEEESKVTVQNLNETQRSTPSRYKDLKIAWKYKLADEKRLGSPDRDDIQQNSEYKDYNHQFDITTRLMPAPIASELTFIAPTQPVSTILSQIEQTIKRNDKKLIRIVIPSLLHPAMYPPKMFESSEIIGLMHGVRSLVKKYYERVVLFASISIDIITPPLLVLLRNMFDSVINLEPFNQEMTEFLERVYKSQPGKIQHGLVHILKLPVFTDRGEMRVLKSEWAFKNGRKKFEIEQWGIPVDDAEGSAASEQSHSHSHSDEISHNIPAKKTKISLDY
chain 2: MASSSHNPVILLKRILSLTESSPFILCLDSIAQTSYKLIQEFVHQSKSKGNEYPIVYISFETVNKPSYCTQFIDATQMDFVHLVKQIISYLPAATATQAKKHMVIIDSLNYISTEYITRFLSEIASPHCTMVATYHKDIKDENRTVIPDWNNNYPDKLTLLQFMATTIVDIDVVLTGTLDTEEVSELLNEFRIPRGLNNDIFQLRLVNKRKSGRSLEYDFIVNSNTHEYELLSTTKQEEESSSNGLETPEMLQGLTTFNLGTSNKQKLAKDQVALPFLEAQSFGQGGAIVYEYEKDDDYDEEDPYEDPF
chain 3: MGSVQRQDLVLFSDQSVLPAHFFQDSNSHNLFFITHQSCTQPLWMINALVETHVLGSPSSLNESSSSMLPSSTRSHAVLASFIHEQNYFTNSLNKLKIPSNNYNVLDFLSDFIVNNIHNKPRDKILSDVLAKFSAAIQNNPTDTIVIIEQPELLLSLVSGLTCSELNNKFITPLLRQCKVLIIVSNSDIFNIDEYDASVHSSNLQNFYKSSFIKSMINLNLNPLKTGFAKDVTGSLHVCRGGAPIATSNTSLHVVENEYLYLNEKESTKLFYR
notes: Elp4, S. cerevisiae, endogenous protein; Elp5, S. cerevisiae, endogenous protein; Elp6, S. cerevisiae, endogenous protein with TAP tag; Only part of the TAP tag is left after TEV elution; copies: 2 + 2 + 2
